This note sets out measurements from the Immune Epitope Database (IEDB).

Some results are limits rather than exact numbers.

What is called Kd is the constant that tells how readily two partners part at equilibrium.

In assay [1] the target is HLA-A*02:01. Briefly: IEDB peptide-MHC binding, purified MHC/competitive/radioactivity; filed as Kd, often an IC50 or EC50 that approximates it; ≥ and ≤ were set here for values at or beyond the usual limits of such assays.
Assay [2] deals with HLA-A*02:02. Described as above.
Assay [3] addresses HLA-A*02:03. The description is as above.
The target of assay [4] is HLA-A*02:06. The assay is described as above.
Assay [5] concerns the target HLA-A*68:02. The description is as above.
In assay [6] the target is HLA-A*01:01. Kind of assay: IEDB peptide-MHC binding, purified MHC/direct/fluorescence; filed as Kd, often an IC50 or EC50 that approximates it; ≥ and ≤ were set here for values at or beyond the usual limits of such assays. To be noted: source organism: Pseudomonas putida.
The target of assay [7] is HLA-A*02:01. Described as above.
Assay [8] addresses HLA-A*03:01. The assay is described as above.
The target in assay [9] is HLA-A*11:01. The assay is described as above. The conditions noted are these: source organism: Pseudomonas putida.
Assay [10] addresses HLA-A*26:01. The assay is described as above. The conditions noted are these: source organism: Pseudomonas putida.
In assay [11] the target is HLA-A*31:01. The description is as above. The conditions noted are these: source organism: Pseudomonas putida.
Assay [12] has as its target HLA-A*69:01. The description is as above. The conditions noted are these: source organism: Pseudomonas putida.
Assay [13] deals with HLA-B*07:02. Described as above. The conditions noted are these: source organism: Pseudomonas putida.
Assay [14] has as its target HLA-B*08:01. Described as above. The conditions noted are these: source organism: Pseudomonas putida.
Assay [15] deals with HLA-B*15:01. The assay is described as above. The conditions noted are these: source organism: Pseudomonas putida.
Assay [16] concerns the target HLA-B*27:05. The assay is described as above. The conditions noted are these: source organism: Pseudomonas putida.
The target in assay [17] is HLA-B*40:01. The assay is described as above. The conditions noted are these: source organism: Pseudomonas putida.
Assay [18] has as its target HLA-B*58:01. The assay is described as above. To be noted: source organism: Pseudomonas putida.
The target in assay [19] is HLA-B*08:01. Briefly: IEDB peptide-MHC binding, purified MHC/competitive/radioactivity; filed as Kd, often an IC50 or EC50 that approximates it; ≥ and ≤ were set here for values at or beyond the usual limits of such assays.
For assay [20], the target named is HLA-A*26:01. Described as above.
The target of assay [21] is HLA-B*18:01. Kind of assay: IEDB peptide-MHC binding, purified MHC/direct/fluorescence; filed as Kd, often an IC50 or EC50 that approximates it; ≥ and ≤ were set here for values at or beyond the usual limits of such assays.
The target of assay [22] is HLA-A*32:01. Briefly: IEDB peptide-MHC binding, purified MHC/competitive/radioactivity; filed as Kd, often an IC50 or EC50 that approximates it; ≥ and ≤ were set here for values at or beyond the usual limits of such assays. To be noted: source organism: Vaccinia virus WR.
Assay [23] addresses HLA-B*15:01. The description is as above. To be noted: source organism: Vaccinia virus WR.
For assay [24], the target named is HLA-B*51:01. Briefly: IEDB peptide-MHC binding, purified MHC/competitive/fluorescence; filed as Kd, often an IC50 or EC50 that approximates it; ≥ and ≤ were set here for values at or beyond the usual limits of such assays.
For assay [25], the target named is HLA-B*51:01. Kind of assay: IEDB peptide-MHC binding, purified MHC/competitive/radioactivity; filed as Kd, often an IC50 or EC50 that approximates it; ≥ and ≤ were set here for values at or beyond the usual limits of such assays. The conditions noted are these: source organism: Dengue virus 4 Philippines/H241/1956.
Assay [26] addresses HLA-A*01:01. The description is as above. To be noted: source organism: Dengue virus 2 Jamaica/1409/1983.
Assay [27] addresses HLA-A*26:01. Briefly: IEDB peptide-MHC binding, purified MHC/competitive/fluorescence; filed as Kd, often an IC50 or EC50 that approximates it; ≥ and ≤ were set here for values at or beyond the usual limits of such assays. The conditions noted are these: source organism: Hantavirus HPR/02-73.
Assay [28] addresses HLA-B*18:01. Described as above. The conditions noted are these: source organism: Hantavirus HPR/02-73.
The target of assay [29] is HLA-B*27:03. The description is as above. The conditions noted are these: source organism: Hantavirus HPR/02-73.
Assay [30] has as its target HLA-B*57:01. Described as above. To be noted: source organism: Hantavirus HPR/02-73.
[31] abbreviates: source organism: Human immunodeficiency virus type 1 (SF33 ISOLATE).
[32] abbreviates: source organism: Pseudomonas putida.
The mark [33] stands for this setting: source organism: Dengue virus 2 Jamaica/1409/1983.
[34] abbreviates: source organism: Vaccinia virus WR.
[35] abbreviates: source organism: Dengue virus 3 Martinique/1243/1999.
[36] abbreviates: source organism: Dengue virus 1 Singapore/S275/1990.
Setting [37] is: source organism: Trypanosoma cruzi.
Where [38] appears, read: source organism: Lassa virus Josiah.
The mark [39] stands for this setting: source organism: Dengue virus 4 Philippines/H241/1956.

As for ALIRILQQL, the dissociation constant Kd in assay [1] (setting [31]) was 28.1 nM; in [2] (setting [31]), 3.31 nM; in assay [3] (setting [31]), 2.99 nM; in assay [4] (setting [31]) it was 8.2 nM; in assay [5] (setting [31]), at least 65300 nM.

Turning to DLSNSMRDF, the Kd in assay [6] is at least 20000 nM; in assay [7] (setting [32]), at least 20000 nM; in assay [8] (setting [32]) it was at least 20000 nM; in assay [9] it was at least 20000 nM; in assay [10] it was 4520 nM; in [11] it was at least 20000 nM. In addition, the Kd in assay [12], in [13], in assay [14], in [15], in assay [16] and in [17] was at least 20000 nM each time. In [18], this sequence had a dissociation constant Kd of at least 20000 nM.

Turning to DTMTYKCPRI, in [5] (source organism: Dengue virus 1 Brazil/97-11/1997), the dissociation constant (Kd) was found to be 64 nM.

Regarding EARKTFVDL, in assay [19] (setting [33]), the dissociation constant Kd stood at 570 nM.

Consider ELKLFNVTL, for which the dissociation constant Kd in [19] (setting [34]) is 4.68 nM.

Regarding ETPTWNRKEL, the Kd in assay [5] (setting [35]) came out at 872 nM.

Regarding EVDSFSLGLL, the dissociation constant Kd in assay [20] (setting [36]) was 1930 nM; in assay [5] (setting [36]) it was 146 nM.

Regarding FANYNFTLV, the dissociation constant Kd is 22.6 nM in [2] (setting [37]), at least 78100 nM in assay [3] (setting [37]), 0.00585 nM in assay [4] (setting [37]) and 0.0102 nM in assay [5] (setting [37]).

FIWFIFHFV: the Kd in assay [19] (source organism: Vaccinia virus) was determined as 3160 nM.

In the case of FPFGDVWNY, in assay [21] (source organism: Listeria innocua), the Kd is 1.4 nM.

Regarding FVKRKKLDI, the dissociation constant Kd in assay [19] (setting [34]) worked out at 2.98 nM.

As to GASRRSWPL, the Kd in [19] (source organism: Dengue virus 4 Dominica/814669/1981) was 14 nM.

As for GKKHMIAGVL, the Kd in assay [19] (source organism: Dengue virus 3 Singapore/8120/1995) stood at 11900 nM.

Turning to GLVGLVTFLL, the Kd in assay [1] (setting [38]) is 49 nM; in assay [2] (setting [38]) it was 191 nM; in assay [3] (setting [38]), 122 nM; in assay [4] (setting [38]) it was 2060 nM; in assay [5] (setting [38]), 214 nM.

On to GLYNFATCGL, for which the Kd in [2] (setting [38]) was 5.12 nM; in assay [3] (setting [38]), 2.27 nM; in assay [4] (setting [38]), 218 nM; in assay [5] (setting [38]), at least 5000 nM.

Regarding IDKKGKVVGL, in [19] (source organism: Dengue virus 2 16681-PDK53), the equilibrium dissociation constant (Kd) worked out at 13700 nM.

As for ILNAMITKI, the dissociation constant (Kd) in [1] (source organism: Homo sapiens) was found to be 95 nM.

Turning to IMTSYQYLII, the Kd in [1] (setting [38]) is 1000 nM.

In turn, KEVSGVKGF displayed a dissociation constant (Kd) in assay [21] (source organism: Yellow fever virus) of 500 nM.

For LGRNKRPRL, the Kd in assay [19] (source organism: Dengue virus 3 Sri Lanka/1266/2000) was found to be 42.7 nM.

Regarding LIITKVFSF, the Kd in [22] worked out at 83.9 nM; in [23], 7.68 nM.

Consider LLGMWGIAAI, for which the Kd is 14.3 nM in [1] (setting [37]); 24.3 nM in [2] (setting [37]); 3.16 nM in assay [3] (setting [37]); 9.58 nM in [4] (setting [37]); at least 42200 nM in assay [5] (setting [37]).

On to LLQYWSQEL, for which, in assay [1] (source organism: HIV-1 M:B_MN), the dissociation constant Kd came out at 189 nM.

The sequence LPDTGSWGI showed a Kd in assay [24] (source organism: Yersinia pestis Nepal516) of at least 20000 nM.

As for LSIPPTAGIL, the results for the Kd in [19] (setting [39]) and in assay [25] were 2340 nM and 9470 nM, respectively.

In the case of LTFIRSTMPL, the figures for the Kd in assay [20] (setting [39]), in assay [5] (setting [39]) and in assay [25] were 7410 nM, 19.8 nM and 1520 nM, respectively.

Consider LVGLVTFLL, for which, in assay [1] (setting [38]), the Kd is 641 nM.

Consider MLLVLCAVQL, for which, in assay [19] (setting [35]), the dissociation constant (Kd) was determined as 5970 nM.

In the case of MMKERSTIL, the dissociation constant Kd in assay [19] (setting [34]) was 34.9 nM.

Consider MRGAKRMAIL, for which, in assay [19] (setting [33]), the Kd was found to be 54.2 nM.

In the case of MSFSCIAIGI, in [5] (setting [35]), the Kd stood at 5.17 nM.

As to MTTEDMLAV, the equilibrium dissociation constant (Kd) in [26] amounted to 2700 nM; in assay [4] (setting [33]), 7.01 nM; in assay [20] (setting [33]), 623 nM; in assay [5] (setting [33]), 10.8 nM.

As to MVTHFDNTQV, in assay [5] (setting [39]), the dissociation constant Kd was 9.99 nM.

On to NPQTKQMAF, for which, in [19] (setting [34]), the Kd was determined as 14.3 nM.

For the sequence QLQVTEREEV, the Kd in [5] (source organism: Homo sapiens) was at least 60000 nM.

Take RLTQSHPIL: the dissociation constant (Kd) in assay [1] (setting [38]) was 1670 nM.

On to RTVFFVLMML, for which the Kd in [5] (setting [39]) worked out at 17.9 nM.

For SAKQLRTRI, the Kd in assay [19] (setting [34]) came to 201 nM.

As for SASSMINGV, the Kd in assay [5] (setting [35]) turned out to be 28.9 nM.

As to SPYNFFKRI, the equilibrium dissociation constant (Kd) in assay [19] (setting [34]) amounted to 422 nM.

As to SSMRKTDWL, in assay [19] (setting [35]), the Kd stood at 240 nM.

For SVMNFIPII, the Kd was found to be 13.2 nM in assay [2] (setting [34]), 6.26 nM in assay [3] (setting [34]), 2.83 nM in assay [4] (setting [34]) and 0.604 nM in assay [22].

Regarding TSKKRSWPL, the Kd in assay [19] (setting [33]) amounted to 5.82 nM.

For TVTGGIFLFL, the Kd in [5] (setting [33]) turned out to be 53.6 nM.

On to TWLPVLLGSL, for which the dissociation constant Kd in [19] (setting [36]) is 9430 nM.

WLVLRINKAL: the Kd in assay [5] (source organism: Homo sapiens) was 4450 nM.

Take WTLYAVATTI: the Kd in [5] (setting [39]) worked out at 10 nM.

For YILGFAIPI, the Kd in assay [7] (source organism: Juquitiba virus) was 0.3 nM; in [8] (source organism: Araucaria virus), at least 20000 nM; in assay [27], at least 20000 nM; in assay [28], at least 20000 nM; in assay [29], at least 20000 nM; in [24] (source organism: Hantavirus HPR/02-73), at least 20000 nM. For the same sequence, the equilibrium dissociation constant (Kd) in [30] was at least 20000 nM.

With YLLPSRGPKL, in [1] (source organism: Hepatitis C virus subtype 2b), the equilibrium dissociation constant (Kd) turned out to be 646 nM.

For YLSTERDHV, the Kd in assay [1] (source organism: Variola virus) amounted to 100 nM.
